According to patent US20200262877A1, “ION CHANNEL-BINDING PEPTIDES AND METHODS OF USE THEREOF” (priority 2017, published 2020):

Key:
GABA = assay: Ion channel panel (IonWorks Barracuda): GABA; type: cell-based; conditions: 100% = no change, <100% = inhibition
Outline: (§1)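 Transfected HEK293 or CHO cells were exposed for at least 5 min to peptides at 200 nM and 20 μM final, tested in duplicate, in HEPES-buffered physiological saline. Activation was taken as peptide-plus-agonist current over control current ×100, and inhibition as 1 minus that ratio ×100. Each channel's control was its own reference compound.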

Cav2.2 = molecular target: T1, Cav2.2 (Homo sapiens, UniProt Q00975); assay: cell-based; conditions: 100% = no change, <100% = inhibition
T1 construct: host or cells: HEK293 or CHO
Outline: as §1

Kv2.1 = molecular target: T2, Kv2.1 (Homo sapiens, UniProt Q14721); assay: cell-based; conditions: 100% = no change, <100% = inhibition
T2 construct: host or cells: HEK293 or CHO
Outline: as §1

Cav2.1 = molecular target: T3, Cav2.1 (Homo sapiens, UniProt O00555); assay: cell-based; conditions: 100% = no change, <100% = inhibition
T3 construct: host or cells: HEK293 or CHO
Outline: as §1

Kir2.1 = molecular target: T4, Kir2.1 (Homo sapiens, UniProt P63252); assay: Ion channel panel (IonWorks Barracuda): Kir2.1; type: cell-based; conditions: 100% = no change, <100% = inhibition
T4 construct: host or cells: HEK293 or CHO
T4 sequence (P63252 whole entry): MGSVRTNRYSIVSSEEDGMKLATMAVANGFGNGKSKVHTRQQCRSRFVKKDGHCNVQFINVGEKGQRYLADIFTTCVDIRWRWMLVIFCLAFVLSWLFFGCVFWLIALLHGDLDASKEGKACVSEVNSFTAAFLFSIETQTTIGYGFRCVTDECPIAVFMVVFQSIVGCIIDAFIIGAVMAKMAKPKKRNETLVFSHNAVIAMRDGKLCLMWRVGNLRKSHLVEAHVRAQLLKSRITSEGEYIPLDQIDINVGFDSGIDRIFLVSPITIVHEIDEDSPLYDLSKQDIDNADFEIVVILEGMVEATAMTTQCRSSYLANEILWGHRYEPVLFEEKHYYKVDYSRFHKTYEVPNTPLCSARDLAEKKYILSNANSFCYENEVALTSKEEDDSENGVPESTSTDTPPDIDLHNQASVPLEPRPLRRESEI
Outline: as §1

NR2B = molecular target: T5, NR2B (Homo sapiens, UniProt Q13224); assay: Ion channel panel (IonWorks Barracuda): NR2B; type: cell-based; conditions: 100% = no change, <100% = inhibition
T5 construct: host or cells: HEK293 or CHO
Outline: as §1

Kv1.2 = molecular target: T6, Kv1.2 (Homo sapiens, UniProt P16389); assay: cell-based; type: cell-based; conditions: 100% = no change, <100% = inhibition
T6 construct: host or cells: HEK293 or CHO
Outline: as §1

Kv1.1 = molecular target: T7, Kv1.1 (Homo sapiens, UniProt Q09470); assay: cell-based; type: cell-based; conditions: 100% = no change, <100% = inhibition
T7 construct: host or cells: HEK293 or CHO
T7 sequence (Q09470 whole entry): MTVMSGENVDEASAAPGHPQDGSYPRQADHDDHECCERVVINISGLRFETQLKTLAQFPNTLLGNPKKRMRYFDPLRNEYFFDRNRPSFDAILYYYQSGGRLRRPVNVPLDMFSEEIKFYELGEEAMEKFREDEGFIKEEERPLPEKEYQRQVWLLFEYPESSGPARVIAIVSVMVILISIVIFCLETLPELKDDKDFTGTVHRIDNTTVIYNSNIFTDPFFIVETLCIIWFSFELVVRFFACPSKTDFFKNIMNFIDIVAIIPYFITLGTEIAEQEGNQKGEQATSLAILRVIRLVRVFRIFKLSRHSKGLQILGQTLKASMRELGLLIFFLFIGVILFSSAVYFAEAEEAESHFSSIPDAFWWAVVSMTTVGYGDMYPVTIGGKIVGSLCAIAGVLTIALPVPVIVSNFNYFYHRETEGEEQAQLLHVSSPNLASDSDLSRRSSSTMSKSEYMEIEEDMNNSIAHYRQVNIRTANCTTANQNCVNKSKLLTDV
Outline: as §1

Kv1.3 = molecular target: T8, Kv1.3 (Homo sapiens, UniProt P22001); assay: cell-based; type: cell-based; conditions: 100% = no change, <100% = inhibition
T8 construct: host or cells: HEK293 or CHO
Outline: as §1

NR2A = molecular target: T9, NR2A (Homo sapiens, UniProt Q12879); assay: Ion channel panel (IonWorks Barracuda): NR2A; type: cell-based; conditions: 100% = no change, <100% = inhibition
T9 construct: host or cells: HEK293 or CHO
Outline: as §1

α3β4 = molecular target: T10, α3β4 (Homo sapiens, UniProt P30926+P32297); assay: Ion channel panel (IonWorks Barracuda): α3β4; type: cell-based; conditions: 100% = no change, <100% = inhibition
T10 construct: host or cells: HEK293 or CHO
Outline: as §1

TRPA1 = molecular target: T11, TRPA1 (Homo sapiens, UniProt O75762); assay: Ion channel panel (IonWorks Barracuda): TRPA1; type: cell-based; conditions: 100% = no change, <100% = inhibition
T11 construct: host or cells: HEK293 or CHO
Outline: as §1

α4β2 = molecular target: T12, α4β2 (Homo sapiens, UniProt P17787+P43681); assay: Ion channel panel (IonWorks Barracuda): α4β2; type: cell-based; conditions: 100% = no change, <100% = inhibition
T12 construct: host or cells: HEK293 or CHO
Outline: as §1

5HT3a = molecular target: T13, 5HT3a (Homo sapiens, UniProt P46098); assay: Ion channel panel (IonWorks Barracuda): 5HT3a; type: cell-based
T13 construct: host or cells: HEK293 or CHO
T13 sequence (P46098 whole entry, looked up): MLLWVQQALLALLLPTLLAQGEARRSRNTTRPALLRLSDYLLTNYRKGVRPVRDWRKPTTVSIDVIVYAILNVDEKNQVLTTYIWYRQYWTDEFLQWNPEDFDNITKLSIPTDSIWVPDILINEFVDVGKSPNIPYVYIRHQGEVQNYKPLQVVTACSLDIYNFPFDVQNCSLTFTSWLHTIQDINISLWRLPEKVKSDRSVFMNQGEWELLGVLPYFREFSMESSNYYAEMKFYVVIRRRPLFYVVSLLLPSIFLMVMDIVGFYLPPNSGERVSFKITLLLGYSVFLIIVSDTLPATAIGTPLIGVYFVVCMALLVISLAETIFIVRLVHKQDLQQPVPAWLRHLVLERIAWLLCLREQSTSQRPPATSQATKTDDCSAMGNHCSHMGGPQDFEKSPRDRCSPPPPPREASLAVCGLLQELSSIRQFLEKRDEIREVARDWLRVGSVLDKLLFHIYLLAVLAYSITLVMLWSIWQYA
Outline: as §1

Nav1.7 = molecular target: T14, Nav1.7 (Homo sapiens, UniProt Q15858); assay: cell-based; type: cell-based; conditions: 100% = no change; for Activity of Nav1.7 with peptide, expressed as a percentage of the reference compound: peptide at 0.2 μM; for Activity of Nav1.7 with peptide (percentage of the reference compound): peptide at 20 μM
T14 construct: host or cells: HEK293 or CHO
T14 sequence (Q15858 whole entry): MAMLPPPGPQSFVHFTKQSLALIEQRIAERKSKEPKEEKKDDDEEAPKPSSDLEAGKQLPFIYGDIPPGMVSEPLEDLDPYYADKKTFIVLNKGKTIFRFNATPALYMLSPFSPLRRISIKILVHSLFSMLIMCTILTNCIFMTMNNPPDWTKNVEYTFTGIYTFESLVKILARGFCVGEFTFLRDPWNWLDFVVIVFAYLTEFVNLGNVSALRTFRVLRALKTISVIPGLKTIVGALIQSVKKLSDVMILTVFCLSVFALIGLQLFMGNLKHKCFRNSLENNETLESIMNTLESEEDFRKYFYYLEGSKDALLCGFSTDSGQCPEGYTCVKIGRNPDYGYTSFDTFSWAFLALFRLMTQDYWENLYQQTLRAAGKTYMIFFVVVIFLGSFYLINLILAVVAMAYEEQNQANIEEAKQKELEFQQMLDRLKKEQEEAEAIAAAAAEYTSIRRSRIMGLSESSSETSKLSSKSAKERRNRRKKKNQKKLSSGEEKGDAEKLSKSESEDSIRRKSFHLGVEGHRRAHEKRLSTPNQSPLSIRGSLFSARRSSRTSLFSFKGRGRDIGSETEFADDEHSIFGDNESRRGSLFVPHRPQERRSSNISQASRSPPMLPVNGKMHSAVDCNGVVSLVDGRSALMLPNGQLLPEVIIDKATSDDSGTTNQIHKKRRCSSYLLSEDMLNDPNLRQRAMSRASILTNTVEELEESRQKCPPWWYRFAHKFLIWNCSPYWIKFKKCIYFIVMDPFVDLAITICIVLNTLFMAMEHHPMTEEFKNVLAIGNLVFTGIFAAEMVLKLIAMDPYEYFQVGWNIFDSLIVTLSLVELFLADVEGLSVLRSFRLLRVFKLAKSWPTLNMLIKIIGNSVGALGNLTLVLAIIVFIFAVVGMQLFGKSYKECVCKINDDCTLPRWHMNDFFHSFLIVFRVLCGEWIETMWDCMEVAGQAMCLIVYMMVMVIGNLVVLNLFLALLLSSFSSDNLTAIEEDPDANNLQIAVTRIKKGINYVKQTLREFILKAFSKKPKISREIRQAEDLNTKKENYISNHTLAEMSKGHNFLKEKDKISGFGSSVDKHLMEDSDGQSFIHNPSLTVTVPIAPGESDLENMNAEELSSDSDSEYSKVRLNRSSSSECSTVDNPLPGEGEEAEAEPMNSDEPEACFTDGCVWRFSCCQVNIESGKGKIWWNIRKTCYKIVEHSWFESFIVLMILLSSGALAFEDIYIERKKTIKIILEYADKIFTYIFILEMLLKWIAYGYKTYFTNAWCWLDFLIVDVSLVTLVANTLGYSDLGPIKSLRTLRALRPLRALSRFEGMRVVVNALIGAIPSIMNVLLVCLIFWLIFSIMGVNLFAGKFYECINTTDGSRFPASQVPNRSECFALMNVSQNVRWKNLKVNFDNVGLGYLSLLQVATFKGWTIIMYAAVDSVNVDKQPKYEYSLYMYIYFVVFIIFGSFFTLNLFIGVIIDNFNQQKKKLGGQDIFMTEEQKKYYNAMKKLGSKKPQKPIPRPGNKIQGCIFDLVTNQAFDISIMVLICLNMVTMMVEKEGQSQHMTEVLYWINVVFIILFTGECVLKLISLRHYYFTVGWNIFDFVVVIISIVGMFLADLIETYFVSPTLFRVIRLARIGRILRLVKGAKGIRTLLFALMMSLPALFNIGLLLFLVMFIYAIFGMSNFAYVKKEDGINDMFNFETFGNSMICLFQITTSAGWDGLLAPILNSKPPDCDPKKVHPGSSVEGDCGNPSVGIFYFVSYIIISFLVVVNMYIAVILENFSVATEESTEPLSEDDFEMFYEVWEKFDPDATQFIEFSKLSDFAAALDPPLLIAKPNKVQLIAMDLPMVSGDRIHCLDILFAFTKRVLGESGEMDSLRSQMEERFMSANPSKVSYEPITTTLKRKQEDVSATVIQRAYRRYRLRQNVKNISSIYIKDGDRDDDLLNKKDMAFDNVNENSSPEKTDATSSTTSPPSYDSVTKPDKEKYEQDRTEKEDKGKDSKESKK

TRPV1 = molecular target: T15, TRPV1 (Homo sapiens, UniProt Q8NER1); assay: Ion channel panel (IonWorks Barracuda): TRPV1; type: cell-based; conditions: 100% = no change, <100% = inhibition
T15 construct: host or cells: HEK293 or CHO
Outline: as §1

hERG = hERG (Homo sapiens, UniProt Q12809); assay: in vitro; conditions: 100% = no change, <100% = inhibition
Outline: as §1

Nav1.5 = Nav1.5 (Homo sapiens, UniProt Q14524); assay: in vitro; conditions: 100% = no change; for Activity of Nav1.5 with peptide, expressed as a percentage of the reference compound: peptide at 0.2 μM; for Activity of Nav1.5 with peptide (percentage of the reference compound): peptide at 20 μM
Nav1.5, sequence (Q14524 whole entry): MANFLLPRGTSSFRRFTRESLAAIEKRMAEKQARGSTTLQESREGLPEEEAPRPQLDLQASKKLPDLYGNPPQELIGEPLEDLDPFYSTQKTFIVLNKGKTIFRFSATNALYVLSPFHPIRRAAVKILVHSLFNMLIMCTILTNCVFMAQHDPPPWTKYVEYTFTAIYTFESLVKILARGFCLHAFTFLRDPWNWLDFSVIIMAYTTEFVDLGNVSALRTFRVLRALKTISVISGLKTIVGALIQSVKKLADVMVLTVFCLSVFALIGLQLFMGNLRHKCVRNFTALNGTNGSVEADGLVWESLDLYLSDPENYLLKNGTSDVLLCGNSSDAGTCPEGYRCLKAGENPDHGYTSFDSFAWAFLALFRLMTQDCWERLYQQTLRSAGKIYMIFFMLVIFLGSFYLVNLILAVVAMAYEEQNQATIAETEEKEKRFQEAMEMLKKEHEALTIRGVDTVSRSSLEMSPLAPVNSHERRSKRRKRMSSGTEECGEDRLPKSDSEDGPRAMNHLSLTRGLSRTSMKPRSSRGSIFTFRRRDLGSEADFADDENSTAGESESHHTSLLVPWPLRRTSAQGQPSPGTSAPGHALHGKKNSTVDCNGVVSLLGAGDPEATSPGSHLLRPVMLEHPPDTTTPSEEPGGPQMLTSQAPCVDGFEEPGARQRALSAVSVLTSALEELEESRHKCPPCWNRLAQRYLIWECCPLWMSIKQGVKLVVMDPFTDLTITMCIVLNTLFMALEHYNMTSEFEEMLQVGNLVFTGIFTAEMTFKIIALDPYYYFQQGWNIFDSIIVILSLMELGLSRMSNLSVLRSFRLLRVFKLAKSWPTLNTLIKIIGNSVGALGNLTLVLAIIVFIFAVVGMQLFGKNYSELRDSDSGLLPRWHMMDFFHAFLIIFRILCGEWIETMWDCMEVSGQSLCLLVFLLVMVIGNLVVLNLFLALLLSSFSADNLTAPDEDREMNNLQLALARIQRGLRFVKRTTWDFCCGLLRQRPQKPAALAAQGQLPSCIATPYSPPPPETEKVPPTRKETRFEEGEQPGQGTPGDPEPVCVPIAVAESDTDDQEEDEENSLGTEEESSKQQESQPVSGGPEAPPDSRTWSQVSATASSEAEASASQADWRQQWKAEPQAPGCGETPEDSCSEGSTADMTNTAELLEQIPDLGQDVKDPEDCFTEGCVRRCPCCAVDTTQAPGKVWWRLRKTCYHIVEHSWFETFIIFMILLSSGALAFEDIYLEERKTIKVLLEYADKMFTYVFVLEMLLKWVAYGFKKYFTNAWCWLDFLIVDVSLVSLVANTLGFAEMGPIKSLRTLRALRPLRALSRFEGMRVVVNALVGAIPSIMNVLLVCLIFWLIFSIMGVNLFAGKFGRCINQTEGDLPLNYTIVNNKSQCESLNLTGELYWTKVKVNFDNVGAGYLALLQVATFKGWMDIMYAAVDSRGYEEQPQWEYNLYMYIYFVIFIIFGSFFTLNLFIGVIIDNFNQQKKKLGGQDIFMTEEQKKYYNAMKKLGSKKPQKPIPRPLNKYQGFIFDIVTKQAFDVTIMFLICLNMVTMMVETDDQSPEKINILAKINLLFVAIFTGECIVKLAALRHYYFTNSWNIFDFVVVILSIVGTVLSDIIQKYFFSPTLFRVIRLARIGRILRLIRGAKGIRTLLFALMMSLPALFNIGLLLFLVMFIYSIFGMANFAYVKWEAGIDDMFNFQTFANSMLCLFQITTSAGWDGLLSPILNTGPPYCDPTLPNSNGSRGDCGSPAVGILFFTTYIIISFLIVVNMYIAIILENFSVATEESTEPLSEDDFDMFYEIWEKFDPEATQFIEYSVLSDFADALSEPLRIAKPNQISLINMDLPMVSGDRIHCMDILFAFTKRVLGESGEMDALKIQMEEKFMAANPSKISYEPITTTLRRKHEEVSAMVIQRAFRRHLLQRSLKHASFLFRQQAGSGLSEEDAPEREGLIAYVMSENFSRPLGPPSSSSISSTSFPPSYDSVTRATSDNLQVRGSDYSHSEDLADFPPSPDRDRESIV
Outline: as §1

[1] = first of two Nav1.7 columns (probably TP1)
[2] = second of two Nav1.7 columns (probably TP2)
[3] = first of two Nav1.5 columns (probably TP1)
[4] = second of two Nav1.5 columns (probably TP2)

With “12 (GSNFKVEGACSKPCRKYCIDKGARNGKCINGRCHCYY) [compound 12]” the “Activity of GABA with peptide, expressed as a percentage of the reference compound” value (GABA; peptide at 0.2 μM) was 102%, the “Activity of GABA with peptide (percentage of the reference compound)” value (GABA; peptide at 20 μM) was 93% and the “Activity of Cav2.2 with peptide, expressed as a percentage of the reference compound” value (Cav2.2; peptide at 0.2 μM) was 115%. The “Activity of Cav2.2 with peptide (percentage of the reference compound)” value (Cav2.2; peptide at 20 μM) was 115%, the “Activity of Kv2.1 with peptide, expressed as a percentage of the reference compound” value (Kv2.1; peptide at 0.2 μM) was 104% and the “Activity of Kv2.1 with peptide (percentage of the reference compound)” value (Kv2.1; peptide at 20 μM) was 113%. For the same substance, the “Activity of Cav2.1 with peptide, expressed as a percentage of the reference compound” value (Cav2.1; peptide at 0.2 μM) was 109%, the “Activity of Cav2.1 with peptide (percentage of the reference compound)” value (Cav2.1; peptide at 20 μM) was 104% and the “Activity of Kir2.1 with peptide, expressed as a percentage of the reference compound” value (Kir2.1; peptide at 0.2 μM) was 97%. The “Activity of Kir2.1 with peptide (percentage of the reference compound)” value (Kir2.1; peptide at 20 μM) was 102%, the “Activity of NR2B with peptide, expressed as a percentage of the reference compound” value (NR2B; peptide at 0.2 μM) was 122% and the “Activity of NR2B with peptide (percentage of the reference compound)” value (NR2B; peptide at 20 μM) was 83%. For the same substance, the “Activity of Kv1.2 with peptide, expressed as a percentage of the reference compound” value (Kv1.2; peptide at 0.2 μM) was 88%, the “Activity of Kv1.2 with peptide (percentage of the reference compound)” value (Kv1.2; peptide at 20 μM) was 41% and the “Activity of Kv1.1 with peptide, expressed as a percentage of the reference compound” value (Kv1.1; peptide at 0.2 μM) was 107%. For the same substance, the “Activity of Kv1.1 with peptide (percentage of the reference compound)” value (Kv1.1; peptide at 20 μM) was 84%, the “Activity of Kv1.3 with peptide, expressed as a percentage of the reference compound” value (Kv1.3; peptide at 0.2 μM) was 68% and the “Activity of Kv1.3 with peptide (percentage of the reference compound)” value (Kv1.3; peptide at 20 μM) was 23%. The “Activity of NR2A with peptide, expressed as a percentage of the reference compound” value (NR2A; peptide at 0.2 μM) was 94%, the “Activity of NR2A with peptide (percentage of the reference compound)” value (NR2A; peptide at 20 μM) was 91% and the “Activity of a3b4 with peptide, expressed as a percentage of the reference compound” value (α3β4; peptide at 0.2 μM) was 103%. The “Activity of a3b4 with peptide (percentage of the reference compound)” value (α3β4; peptide at 20 μM) was 94%, the “Activity of TRPA1 with peptide, expressed as a percentage of the reference compound” value (TRPA1; peptide at 0.2 μM) was 129% and the “Activity of TRPA1 with peptide (percentage of the reference compound)” value (TRPA1; peptide at 20 μM) was 80%. The “Activity of a4b2 with peptide, expressed as a percentage of the reference compound” value (α4β2; peptide at 0.2 μM) was 97%, the “Activity of a4b2 with peptide (percentage of the reference compound)” value (α4β2; peptide at 20 μM) was 84% and the “Activity of 5HT3a with peptide (percentage of the reference compound)” value (5HT3a) was 97%. For the same substance, the “Activity of 5HT3a with peptide, expressed as a percentage of the reference compound” value (5HT3a) was 96%, the “Activity of Nav1.7 with peptide, expressed as a percentage of the reference compound” value (Nav1.7; [1]) was 61% and the “Activity of Nav1.7 with peptide, expressed as a percentage of the reference compound” value (Nav1.7; [2]) was 66%. For the same substance, the “Activity of Nav1.7 with peptide (percentage of the reference compound)” value (Nav1.7; [1]) was 74%, the “Activity of Nav1.7 with peptide (percentage of the reference compound)” value (Nav1.7; [2]) was 63% and the “Activity of TRPV1 with peptide, expressed as a percentage of the reference compound” value (TRPV1; peptide at 0.2 μM) was 97%. For the same substance, the “Activity of TRPV1 with peptide (percentage of the reference compound)” value (TRPV1; peptide at 20 μM) was 78%, the “Activity of hERG with peptide, expressed as a percentage of the reference compound” value (hERG; peptide at 0.2 μM) was 89% and the “Activity of hERG with peptide (percentage of the reference compound)” value (hERG; peptide at 20 μM) was 81%. For the same substance, the “Activity of Nav1.5 with peptide, expressed as a percentage of the reference compound” value (Nav1.5; [3]) was 98%, the “Activity of Nav1.5 with peptide, expressed as a percentage of the reference compound” value (Nav1.5; [4]) was 95% and the “Activity of Nav1.5 with peptide (percentage of the reference compound)” value (Nav1.5; [3]) was 131%. For the same substance, the “Activity of Nav1.5 with peptide (percentage of the reference compound)” value (Nav1.5; [4]) was 136%.
